According to patent US20220048967A1 (published 2022):
Numbered stars: 1 amine (or outer) side, 2 acyl side, 3 side chain; on linkers, the order of the positions; unused ones are H or OH. Square brackets hold non-standard residues; d marks the D form. Side chains are listed from the residue outwards. Ends that are not written are not given here. * marks the point of attachment. C20 diacid = O=C(O)CCCCCCCCCCCCCCCCCCC(=O)*; γGlu = O=C(O)[C@H](CCC(=O)[*:2])N[*:1]; αMeF = C[C@](N)(Cc1ccccc1)C(=O)O; AEEA = NCCOCCOCC(=O)O; Aib = CC(C)(N)C(=O)O

T1: human GIP receptor (human, UniProt P48546 22-466)
T1 sequence (looked up): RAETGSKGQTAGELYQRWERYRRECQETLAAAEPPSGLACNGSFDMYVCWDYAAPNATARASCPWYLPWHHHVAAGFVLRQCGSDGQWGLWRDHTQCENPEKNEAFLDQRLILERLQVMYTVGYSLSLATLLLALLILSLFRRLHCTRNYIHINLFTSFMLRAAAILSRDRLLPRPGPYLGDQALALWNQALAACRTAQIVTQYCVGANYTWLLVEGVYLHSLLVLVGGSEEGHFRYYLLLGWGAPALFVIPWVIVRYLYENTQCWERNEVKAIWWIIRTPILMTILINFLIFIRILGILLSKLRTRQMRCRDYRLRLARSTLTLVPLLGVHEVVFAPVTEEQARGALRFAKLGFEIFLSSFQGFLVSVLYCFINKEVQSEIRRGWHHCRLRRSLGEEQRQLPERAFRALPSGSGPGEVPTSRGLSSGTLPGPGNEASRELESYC

B1: Example 9 (peptide)
peptide: Y[Aib]EGTFTSDYSILLDSK([AEEA-AEEA-γGlu-C20 diacid])AQ[Aib]AFIEYLIEGGPSSGAPPPS-NH2
modifications: N-terminus assumed
SMILES: CC[C@H](C)[C@H](NC(=O)[C@H](CC(C)C)NC(=O)[C@H](Cc1ccc(O)cc1)NC(=O)[C@H](CCC(=O)O)NC(=O)[C@@H](NC(=O)[C@H](Cc1ccccc1)NC(=O)[C@H](C)NC(=O)C(C)(C)NC(=O)[C@H](CCC(N)=O)NC(=O)[C@H](C)NC(=O)[C@H](CCCCNC(=O)COCCOCCNC(=O)COCCOCCNC(=O)CC[C@H](NC(=O)CCCCCCCCCCCCCCCCCCC(=O)O)C(=O)O)NC(=O)[C@H](CO)NC(=O)[C@H](CC(=O)O)NC(=O)[C@H](CC(C)C)NC(=O)[C@H](CC(C)C)NC(=O)[C@@H](NC(=O)[C@H](CO)NC(=O)[C@H](Cc1ccc(O)cc1)NC(=O)[C@H](CC(=O)O)NC(=O)[C@H](CO)NC(=O)[C@@H](NC(=O)[C@H](Cc1ccccc1)NC(=O)[C@@H](NC(=O)CNC(=O)[C@H](CCC(=O)O)NC(=O)C(C)(C)NC(=O)[C@@H](N)Cc1ccc(O)cc1)[C@@H](C)O)[C@@H](C)O)[C@@H](C)CC)[C@@H](C)CC)C(=O)N[C@@H](CCC(=O)O)C(=O)NCC(=O)NCC(=O)N1CCC[C@H]1C(=O)N[C@@H](CO)C(=O)N[C@@H](CO)C(=O)NCC(=O)N[C@@H](C)C(=O)N1CCC[C@H]1C(=O)N1CCC[C@H]1C(=O)N1CCC[C@H]1C(=O)N[C@@H](CO)C(N)=O
B2: Example 113 (peptide)
peptide: YXEGTFTSDYSILLDKKAQXAFIEYLIEGGPSSGAPPPS
modifications: Aib2; K17((2-[2-(2-Amino-ethoxy)-ethoxy]-acetyl)2-(ϵK)-CO-(CH2)18-CO2H); Aib20; C-terminal NH2
B3: Example 8 (peptide)
peptide: B2 peptide
modifications: Aib2; K17((2-[2-(2-Amino-ethoxy)-ethoxy]-acetyl)2-(γ-Glu)-CO-(CH2)18-CO2H); Aib20; C-terminal NH2
B4: Example 7 (peptide)
peptide: Y[Aib]EGTFTSDYSILLDSK([AEEA-AEEA-γGlu-C20 diacid])AQ[Aib]AFIEYLLEGGPSSGAPPPS-NH2
modifications: N-terminus assumed
SMILES: CC[C@H](C)[C@H](NC(=O)[C@H](Cc1ccccc1)NC(=O)[C@H](C)NC(=O)C(C)(C)NC(=O)[C@H](CCC(N)=O)NC(=O)[C@H](C)NC(=O)[C@H](CCCCNC(=O)COCCOCCNC(=O)COCCOCCNC(=O)CC[C@H](NC(=O)CCCCCCCCCCCCCCCCCCC(=O)O)C(=O)O)NC(=O)[C@H](CO)NC(=O)[C@H](CC(=O)O)NC(=O)[C@H](CC(C)C)NC(=O)[C@H](CC(C)C)NC(=O)[C@@H](NC(=O)[C@H](CO)NC(=O)[C@H](Cc1ccc(O)cc1)NC(=O)[C@H](CC(=O)O)NC(=O)[C@H](CO)NC(=O)[C@@H](NC(=O)[C@H](Cc1ccccc1)NC(=O)[C@@H](NC(=O)CNC(=O)[C@H](CCC(=O)O)NC(=O)C(C)(C)NC(=O)[C@@H](N)Cc1ccc(O)cc1)[C@@H](C)O)[C@@H](C)O)[C@@H](C)CC)C(=O)N[C@@H](CCC(=O)O)C(=O)N[C@@H](Cc1ccc(O)cc1)C(=O)N[C@@H](CC(C)C)C(=O)N[C@@H](CC(C)C)C(=O)N[C@@H](CCC(=O)O)C(=O)NCC(=O)NCC(=O)N1CCC[C@H]1C(=O)N[C@@H](CO)C(=O)N[C@@H](CO)C(=O)NCC(=O)N[C@@H](C)C(=O)N1CCC[C@H]1C(=O)N1CCC[C@H]1C(=O)N1CCC[C@H]1C(=O)N[C@@H](CO)C(N)=O
B5: Example 10 (peptide)
peptide: Y[Aib]EGTFTSDYSILLDSIAQ[Aib]AFIK([AEEA-AEEA-γGlu-C20 diacid])YLLA[Aib]GPSSGAPPPS-NH2
modifications: N-terminus assumed
SMILES: CC[C@H](C)[C@H](NC(=O)[C@H](CO)NC(=O)[C@H](CC(=O)O)NC(=O)[C@H](CC(C)C)NC(=O)[C@H](CC(C)C)NC(=O)[C@@H](NC(=O)[C@H](CO)NC(=O)[C@H](Cc1ccc(O)cc1)NC(=O)[C@H](CC(=O)O)NC(=O)[C@H](CO)NC(=O)[C@@H](NC(=O)[C@H](Cc1ccccc1)NC(=O)[C@@H](NC(=O)CNC(=O)[C@H](CCC(=O)O)NC(=O)C(C)(C)NC(=O)[C@@H](N)Cc1ccc(O)cc1)[C@@H](C)O)[C@@H](C)O)[C@@H](C)CC)C(=O)N[C@@H](C)C(=O)N[C@@H](CCC(N)=O)C(=O)NC(C)(C)C(=O)N[C@@H](C)C(=O)N[C@@H](Cc1ccccc1)C(=O)N[C@H](C(=O)N[C@@H](CCCCNC(=O)COCCOCCNC(=O)COCCOCCNC(=O)CC[C@H](NC(=O)CCCCCCCCCCCCCCCCCCC(=O)O)C(=O)O)C(=O)N[C@@H](Cc1ccc(O)cc1)C(=O)N[C@@H](CC(C)C)C(=O)N[C@@H](CC(C)C)C(=O)N[C@@H](C)C(=O)NC(C)(C)C(=O)NCC(=O)N1CCC[C@H]1C(=O)N[C@@H](CO)C(=O)N[C@@H](CO)C(=O)NCC(=O)N[C@@H](C)C(=O)N1CCC[C@H]1C(=O)N1CCC[C@H]1C(=O)N1CCC[C@H]1C(=O)N[C@@H](CO)C(N)=O)[C@@H](C)CC
B6: Example 117 (peptide)
peptide: Y[Aib]EGT[αMeF]TSDYSI[Aib]LDEK([AEEA-AEEA-γGlu-C20 diacid])AQ[Aib]AFIEYLIEGGPSSGAPPPS-NH2
modifications: N-terminus assumed
SMILES: CC[C@H](C)[C@H](NC(=O)[C@H](CC(C)C)NC(=O)[C@H](Cc1ccc(O)cc1)NC(=O)[C@H](CCC(=O)O)NC(=O)[C@@H](NC(=O)[C@H](Cc1ccccc1)NC(=O)[C@H](C)NC(=O)C(C)(C)NC(=O)[C@H](CCC(N)=O)NC(=O)[C@H](C)NC(=O)[C@H](CCCCNC(=O)COCCOCCNC(=O)COCCOCCNC(=O)CC[C@H](NC(=O)CCCCCCCCCCCCCCCCCCC(=O)O)C(=O)O)NC(=O)[C@H](CCC(=O)O)NC(=O)[C@H](CC(=O)O)NC(=O)[C@H](CC(C)C)NC(=O)C(C)(C)NC(=O)[C@@H](NC(=O)[C@H](CO)NC(=O)[C@H](Cc1ccc(O)cc1)NC(=O)[C@H](CC(=O)O)NC(=O)[C@H](CO)NC(=O)[C@@H](NC(=O)[C@](C)(Cc1ccccc1)NC(=O)[C@@H](NC(=O)CNC(=O)[C@H](CCC(=O)O)NC(=O)C(C)(C)NC(=O)[C@@H](N)Cc1ccc(O)cc1)[C@@H](C)O)[C@@H](C)O)[C@@H](C)CC)[C@@H](C)CC)C(=O)N[C@@H](CCC(=O)O)C(=O)NCC(=O)NCC(=O)N1CCC[C@H]1C(=O)N[C@@H](CO)C(=O)N[C@@H](CO)C(=O)NCC(=O)N[C@@H](C)C(=O)N1CCC[C@H]1C(=O)N1CCC[C@H]1C(=O)N1CCC[C@H]1C(=O)N[C@@H](CO)C(N)=O

How the values were obtained:
human GIP receptor = target: T1, human GIP receptor; test: cell-based or functional assay
human GLP-1 receptor = human GLP-1 receptor (human, UniProt P43220 24-463); test: cell-based or functional assay

| Binder | hGIPR cAMP EC50 ratio (human GIP receptor) | hGIPR cAMP Rel EC50 (human GIP receptor) | hGLP1R cAMP EC50 ratio (human GLP-1 receptor) | hGLP1R cAMP Rel EC50 (human GLP-1 receptor) |
| --- | --- | --- | --- | --- |
| B1 | 0.768 | 0.21 nM | 0.314 | 0.194 nM |
| B2 | – | 0.166 nM | – | 0.233 nM |
| B3 | – | 0.0848 nM | – | 0.148 nM |
| B4 | 0.317 | 0.461 nM | 0.13 | 0.47 nM |
| B5 | 0.151 | 1.28 nM | 0.00912 | 7.64 nM |
| B6 | 2.44 | 0.0648 nM | 0.998 | 0.0615 nM |
